Consider one molecule from patent US20170260282A1 (Janssen / Centocor, published 2017).

Test [1] concerns the target T1, Human GITR (cell surface) (human, UniProt Q9Y5U5 26-241).
T1 construct: also called hGITR; huGITR
T1 sequence: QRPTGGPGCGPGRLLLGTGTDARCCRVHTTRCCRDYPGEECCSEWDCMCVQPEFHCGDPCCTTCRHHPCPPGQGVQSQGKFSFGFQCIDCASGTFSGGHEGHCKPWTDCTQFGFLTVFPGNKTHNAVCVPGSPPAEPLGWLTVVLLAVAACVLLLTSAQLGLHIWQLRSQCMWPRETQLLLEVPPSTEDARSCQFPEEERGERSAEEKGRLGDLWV
The experiment in a line: MSD-CAT, GITR-expressing HEK293 cells, study 1. The procedure:
(§1) The MSD-CAT was developed in-house as a label-free method to determine affinity using intact cells in a high throughput format. The parental HEK293 cell line without any GITR expressed was used as a negative control.
(§2) These samples were prepared in DMEM Glutamax medium (Invitrogen, Prod #10569-044) with 0.05% Azide, 1% BSA, 3 mM EDTA. After equilibration the plates were centrifuged for 5 min at 2000 rpm and free anti-GITR mAbs are detected in the supernatant. The free anti-GITR mAbs in the mixture were detected by electrochemiluminescence (ECL) using MSD reader instrument. For detection, MSD-Streptavidin plates (MesoScale Discovery, Prod #L11SA-1) were coated with 0.1 μg/mL of biotinylated human-GITR antigen in assay buffer at 50 μL/well and equilibrated overnight (˜16 hr at 4° C.). […] After 1 hr, the plates were washed three times with wash buffer and 150 μL of MSD Read Buffer (MesoScale Discovery Cat #R92TC-1; prepared by diluting 1:3 of stock into d. H2O) were added per well. The plates were read immediately on the MSD Sector Imager 6000 Reader for luminescence levels. ECL signal detected by MSD was expressed in term of % free antibody in the mixture and the data was analyzed to determine affinity using a user defined equation (derived from the law of mass action) introduced in Prism software.

The target in test [2] is T2, Cyno GITR (cell surface) (cynomolgus monkey).
T2 construct: Presented on transfected or transduced HEK293 cells; also called cynomolgus monkey GITR
T2 chain: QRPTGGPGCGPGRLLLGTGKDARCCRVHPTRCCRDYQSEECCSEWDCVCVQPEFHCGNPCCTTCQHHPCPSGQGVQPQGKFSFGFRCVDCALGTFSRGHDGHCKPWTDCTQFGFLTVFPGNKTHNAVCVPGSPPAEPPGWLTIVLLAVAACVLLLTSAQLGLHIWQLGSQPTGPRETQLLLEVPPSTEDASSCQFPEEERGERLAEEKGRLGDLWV
In words: MSD-CAT, GITR-expressing HEK293 cells, study 1. Here is the method:
as §1, §2

Test [3] has as its target T2, Cyno GITR (cell surface). In words: MSD-CAT, cyno against human GITR, study 1. Here is the method: as §1, §2
Test [4] deals with T1, Human GITR (cell surface). The experiment in a line: cell-based or functional assay.
For test [5], the target named is T2, Cyno GITR (cell surface). The experiment in a line: cell-based or functional assay.
Test [6] deals with T3, cyno GITR ECD (cynomolgus monkey).
T3 construct: Only the extracellular domain stood in the SPR assay
T3 chain: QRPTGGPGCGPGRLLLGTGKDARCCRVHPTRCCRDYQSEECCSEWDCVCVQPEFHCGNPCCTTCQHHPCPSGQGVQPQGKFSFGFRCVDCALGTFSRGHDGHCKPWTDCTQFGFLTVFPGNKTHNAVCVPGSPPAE
In words: SPR (ProteOn XPR36), mAb captured by anti-human Fc, GITR ECD as analyte, 25 °C. The procedure: (§3) The affinities of the GITR antibodies to recombinant human GITR ECD were measured by Surface Plasmon Resonance (SPR) using a ProteOn XPR36 protein interaction array system (BioRad).
(§4) The rates of GITR ECD association and dissociation were measured for each variant. The biosensor surface was prepared by covalently coupling Goat anti-Human IgG (Fc) to the surface of a GLC chip (BioRad) using the manufacturer instructions for amine-coupling chemistry. Approximately 8800 RU (response units) of Goat anti-Human IgG (Fc) antibody (Jackson ImmunoResearch laboratories Prod #109-005-098) were immobilized. […] Since the mixture was 1:1 about 50% of these RU immobilized are expected to be goat anti-human Fc. The binding kinetics experiments were performed at 25° C. in running buffer (PBS pH 7.4, 0.005% P20, 3 mM EDTA). […] (1:3) serial dilutions of human GITR ECD or cyno GITR ECD starting at 100 nM were prepared in running buffer. […] The reference spots (Goat anti-Human IgG (Fc)-modified surface) containing no candidate captured were used as a reference surface. Capture of mAb was followed by 3 min injection (association phase) of antigen at 40 μL/min, followed by 10 min of buffer flow (dissociation phase). The chip surface was regenerated by injection of 0.85% phosphoric acid at 100 μL/min. Data were processed on the instrument software. Double reference subtraction of the data was performed by subtracting the curves generated by buffer injection from the reference-subtracted curves for analyte injections. Kinetic analysis of the data was performed using 1:1 Langmuir binding model with group fit. The result for each mAb was reported in the format of kon or on-rate, koff or off-rate, and KD (Equilibrium dissociation constant) (Table 7).

For test [7], the target named is T4, recombinant human GITR ECD (human, UniProt Q9Y5U5 26-161).
T4 construct: also called human GITR extracellular domain
T4 sequence: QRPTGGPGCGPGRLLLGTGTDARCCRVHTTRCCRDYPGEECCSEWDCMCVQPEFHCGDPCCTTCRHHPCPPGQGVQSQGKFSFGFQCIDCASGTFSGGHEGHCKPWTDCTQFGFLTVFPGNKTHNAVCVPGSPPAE
The test is described as above. The procedure: as §3, §4

B1: TRGB153 (antibody, human IgG1, kappa, V domains shown)
VH: QVQLVQSGAEVKKPGSSVKVSCKASGGTFSSYAISWVRQAPGQGLEWMGGIIPIFGTANYAQKFQGRVTITADESTSTAYMELSSLRSEDTAVYYCARHAWLGHLDYWGQGTLVTVSS
VL: EIVLTQSPATLSLSPGERATLSCRASQSVSSYLAWYQQKPGQAPRLLIYDASNRATGIPARFSGSGSGTDFTLTISSLEPEDFAVYYCQQRSNWPLTFGQGTKVEIKR
notes: human IgG1/kappa
Turning to B1, the Kd in test [1] was roughly 0.01 nM; in test [2] it was 0.115 nM; in test [6], 8.6 nM; in test [7], 0.0202 nM. Also, the “KD Fold Difference (Cy/Hu)” value in test [3] worked out at 11.4 fold. Also, the “ADCC EC50, HEK293-hGITR target cells, NK-92 FcγRIIIa 176V/V effector cells” value in test [4] came out at 1.9 ng/mL. The “ADCC EC50, HEK293-cyno GITR target cells, NK-92 FcγRIIIa 176V/V effector cells” value in test [5] came to 2.5 ng/mL. Besides, the off-rate (koff) came to 0.00257 s⁻¹ in test [6] and 2.02e-05 s⁻¹ in test [7]. In addition, the kon in test [6] was determined as 299000 M⁻¹ s⁻¹; in test [7] it was 996000 M⁻¹ s⁻¹.

In general, Kd refers to the equilibrium constant for the complex coming apart. By koff is commonly meant a measure of how fast the partners let go of each other. Broadly, the kon is a measure of how fast the partners come together.
